Experimental data reported in publication PMC3737563, “Investigation of DNA sequence recognition by a streptomycete MarR family transcriptional regulator through surface plasmon resonance and X-ray crystallography” (Nucleic Acids Research, 2013).

Legend:
[1] = target: the molecule itself; experiment: not stated; purified SCO3205 in solution; the method is told only in the Supplementary Methods
[2] = target: T1, SCO3205 (MarR family regulator) (Streptomyces coelicolor, UniProt Q9KYU1 1-163); experiment: crystal structure; 2.8 A; one dimer per duplex; SPR (ReDCaT, Biacore T200) in HBS-EP+: 10 mM HEPES pH 7.4, 150 mM NaCl, 3 mM EDTA, 0.05% P20, 20°C; settings: protein: recombinant; tags: N-terminal His tag plus TEV site, not removed; chain copies: 2; blunt; self-complementary, 2 copies
T1 sequence: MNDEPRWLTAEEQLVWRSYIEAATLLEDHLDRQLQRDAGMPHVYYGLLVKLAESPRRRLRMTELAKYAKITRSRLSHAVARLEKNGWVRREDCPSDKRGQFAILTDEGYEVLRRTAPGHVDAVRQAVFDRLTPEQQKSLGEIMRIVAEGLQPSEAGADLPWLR

B1: SCO3205, MarR family transcriptional regulator from Streptomyces coelicolor (natural protein, UniProt Q9KYU1 1-163, looked up)
chain: T1 sequence
notes: SCO3205, MarR family transcriptional regulator, Streptomyces coelicolor; the tag was not removed for any experiment; Total deduced molecular mass 20523 Da; also called MFR; source: E. coli BL21 (DE3), purified (HisTrap nickel column, Superdex 75 gel filtration); not shown: His tag, N-terminal, kept
B1 was tested, and the “stoichiometry N” value [1] was 2.

B2: symmetrized O3204 22-mer (dsDNA)
DNA 1: AAAGATTGAGATCTCAATCTTT
DNA 2: AAAGATTGAGATCTCAATCTTT
B2: binds [2].
